Experimental data: patent US20250019427A1 (BYOMASS, published 2025)
Values joined by “and” are separate entries in the source; they are usually repeats but may differ in a detail not shown here. Equal entries are not always repeated.

T1: Mouse GDF15 Fc (mouse, UniProt Q9Z0J7 189-303, limits assumed)
T1 construct: also called mouse GDF15Fc fusion
T1 sequence (looked up): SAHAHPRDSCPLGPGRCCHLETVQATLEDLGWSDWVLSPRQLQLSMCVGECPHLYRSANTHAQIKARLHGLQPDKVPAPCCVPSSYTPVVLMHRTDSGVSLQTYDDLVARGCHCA

T2: GDF15 (Homo sapiens (Human), UniProt Q99988 30-308)
T2 sequence: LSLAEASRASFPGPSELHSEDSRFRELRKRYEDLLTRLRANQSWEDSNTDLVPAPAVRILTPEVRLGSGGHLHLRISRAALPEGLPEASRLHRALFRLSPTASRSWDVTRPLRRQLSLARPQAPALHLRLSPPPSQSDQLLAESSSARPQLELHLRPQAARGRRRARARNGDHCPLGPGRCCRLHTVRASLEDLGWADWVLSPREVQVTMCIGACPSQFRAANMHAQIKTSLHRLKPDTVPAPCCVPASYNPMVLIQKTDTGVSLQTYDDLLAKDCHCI

T3: Cyno GDF15 Fc (cyno, UniProt G7PWZ3 193-308)
T3 construct: also called cyno GDF15-Fc fusion
T3 sequence: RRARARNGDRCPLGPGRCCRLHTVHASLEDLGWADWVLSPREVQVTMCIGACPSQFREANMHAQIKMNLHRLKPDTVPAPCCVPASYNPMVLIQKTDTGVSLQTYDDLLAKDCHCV

T4: Human Activin B (human, UniProt P09529 293-407)
T4 construct: Also used for the Activin B ligand of the ActRIIB/SMAD reporter assay, where the species is not restated
T4 sequence (looked up): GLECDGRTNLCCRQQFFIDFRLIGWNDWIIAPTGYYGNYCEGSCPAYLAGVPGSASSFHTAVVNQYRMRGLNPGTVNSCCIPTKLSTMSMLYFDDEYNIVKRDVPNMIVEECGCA

T5: Human BMP10 (human, UniProt O95393 317-424)
T5 sequence (looked up): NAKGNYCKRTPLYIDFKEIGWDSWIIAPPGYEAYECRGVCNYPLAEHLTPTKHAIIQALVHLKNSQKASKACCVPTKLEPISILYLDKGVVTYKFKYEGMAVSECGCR

T6: GDNF (UniProt P39905 78-211)
T6 sequence (looked up): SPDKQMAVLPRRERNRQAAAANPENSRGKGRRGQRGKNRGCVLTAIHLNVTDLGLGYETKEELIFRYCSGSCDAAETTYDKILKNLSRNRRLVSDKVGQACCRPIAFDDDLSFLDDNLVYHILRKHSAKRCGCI

T7: Human Activin A Fc (human, UniProt P08476 311-426)
T7 sequence (looked up): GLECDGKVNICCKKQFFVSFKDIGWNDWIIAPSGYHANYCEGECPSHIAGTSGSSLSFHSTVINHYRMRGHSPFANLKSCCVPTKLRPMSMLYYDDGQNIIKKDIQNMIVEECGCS


What was measured:
Mouse GDF15 Fc = target: T1, Mouse GDF15 Fc; assay: Octet BLI, Fab monovalent
GDF15 = target: T2, GDF15; assay: cell-based or functional assay
Cyno GDF15 Fc = target: T3, Cyno GDF15 Fc; assay: Octet BLI, Fab monovalent
GDF8 = GDF8 (UniProt O14793 267-375); assay: Octet BLI, IgG on tip, avid
Human Activin B = target: T4, Human Activin B; assay: Octet BLI, IgG on tip, avid
Human BMP10 = target: T5, Human BMP10; assay: Octet BLI, IgG on tip, avid
GDNF = target: T6, GDNF; assay: Octet BLI, IgG on tip, avid
GDF11 = target: T8, GDF11 (UniProt O95390 299-407); assay: Octet BLI, IgG on tip, avid
T8 construct: Also the GDF-11 ligand of the ActRIIB/SMAD reporter assay
T8 sequence (O95390 299-407 limits assumed): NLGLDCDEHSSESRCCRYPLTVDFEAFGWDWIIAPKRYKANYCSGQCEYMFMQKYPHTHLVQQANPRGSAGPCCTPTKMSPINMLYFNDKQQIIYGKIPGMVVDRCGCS

Human Activin A Fc = target: T7, Human Activin A Fc; assay: Octet BLI, IgG on tip, avid

Binder	Kd (Mouse GDF15 Fc)	GDF15 GFRAL RET pERK Fab IC50 pM (GDF15)	Kd (Cyno GDF15 Fc)	also measured
Clone N Fab (Fab, V domains shown, Fab format) VH: QVQLVQSGAEVKKPGASVKVSCKASGYTFTDYGIFWVRQAPGQGLEWMGWITAYSGDTHYAQKLQGRVTMTTDTSTSTAYMELRSLRSDDTAVYYCVRDTQYGGSPYWGQGTLVTVSS VL: EIVMTQSPATLSVSPGERATLSCRASQSVSSNLAWYQQKPGQAPRLLIYGASTRATGIPARFSGSGSGTEFTLTISSLQSEDFAVYYCQQYNNWPITFGGGTKVEIK	2.56 nM	322 pM	–	–
Clone B Fab (Fab, V domains shown, Fab format) VH: QVQLQESGPGLVKPSQTLSLTCTVSGGSISSGGIYWTWIRQHPGKGLEWIGAIAYSGSTYYNPSLKSRVTISVDTSKNQFSLKLSSVTAADTAVYYCARGIEYQHFDYWGQGTLVTVSS VL: not shown	–	30.9 pM	0.349 nM	–
Clone D Fab (Fab, V domains shown, Fab format) VH: QVQLQESGPGLVKPSQTLSLTCTVSGGSINSGGYYWTWIRQHPGKGLEWIGAIYYSGSTVYNPSLKSRVTISVDTSKNQFSLKLSSVTAADTAVYYCARGVEYQHFNEWGQGTLVTVSS VL: not shown	157 nM	27 pM	0.562 nM	–
Clone C Fab (Fab, V domains shown, Fab format; also called Fab of Clone C) VH: QVQLQESGPGLVKPSQTLSLTCTVSGGSISSGGYYWSWIRQHPGKGLEWIGAIVYSGHTYYNPSLKSRVTISVDTSKNQFSLKLSSVTAADTAVYYCARGVEYQHFSLWGQGTLVTVSS VL: not shown	156 nM	36.8 pM	0.36 nM	–
Clone R Fab (Fab, V domains shown, Fab format) VH: QVQLQESGPGLVKPSQTLSLTCTVSGGSISSGGIYWTWIRQHPGKGLEWIGAIAYSGSTYYNPSLESRVTISVDTSKNQFSLKLSSVTAADTAVYYCARGIEYQHFDYWGQGTLVTVSS VL: not shown	234 nM	–	0.366 nM	–
Clone Q Fab (Fab, V domains shown, Fab format) VH: QVQLQESGPGLVKPSQTLSLTCTVSGGSISSGGIYWTWIRQHPGKGLEWIGAIAYSGSTYYNPSLKSRVTISVDTSKNQFSLKLSSVTAADTAVYYCARGIEYQHFDYWGQGTLVTVSS VL: not shown	204 nM	–	0.327 nM	–
Clone A Fab (Fab, V domains shown, Fab format; also called Fab of Clone A) VH: QVQLQESGPGLVKPSQTLSLTCTVSGGSITSGGSYWSWIRQHPGKGLEWIGAIVYSGSTYYNPSLKSRVTISVDTSKNQFSLKLSSVTAADTAVYYCARGVEYQHFDYWGQGTLVTVSS VL: not shown	–	26.5 pM	0.536 nM	–
Clone F IgG (antibody, V domains shown, IgG format) VH: QVQLVQSGAEVKKPGSSVKVSCKASGGTFGGYAISWVRQAPGQGLEWMGGIIPPYATANYAQKFQGRVTITADESTSTAYMELSSLRSEDTAVYYCARGVGTTHLDVWGQGTMVTVSS VL: not shown	–	–	–	GDF15 - GFRAL RET pERK IC50 (pM) (GDF15): 34.9 pM; GDF15 - GFRAL-RET Luciferase IC50 (pM) (GDF15): 91.3 pM; binding result (GDF8): no binding (tested: 100 nM); binding result (Human Activin B): no binding (tested: 100 nM); binding result (Human BMP10): no binding (tested: 100 nM); binding result (GDNF): no binding (tested: 100 nM); binding result (GDF11): no binding (tested: 100 nM); binding result (Human Activin A Fc): no binding (tested: 100 nM)
Clone F Fab (Fab, V domains shown, Fab format) VH: QVQLVQSGAEVKKPGSSVKVSCKASGGTFGGYAISWVRQAPGQGLEWMGGIIPPYATANYAQKFQGRVTITADESTSTAYMELSSLRSEDTAVYYCARGVGTTHLDVWGQGTMVTVSS VL: not shown	26.1 nM	11.2 pM	0.553 nM	–
Clone G Fab (Fab, V domains shown, Fab format) VH: QVQLVQSGAEVKKPGSSVKVSCKASGGTFQGYAISWARQAPGQGLEWMGGIIPPYATANYAQKFQGRVTITADESTSTAYMELSSLRSEDTAVYYCARGVGELHLDVWGQGTMVTVSS VL: not shown	–	33.2 pM	0.474 nM	–
Clone H Fab (Fab, V domains shown, Fab format) VH: QVQLVQSGAEVKKPGSSVKVSCKASGGTFSSYYISWVRQAPGQGLEWMGGIAPISGTASYAQKFQGRVTITADESTSTAYMELSSLRSEDTAVYYCARGLAYDGYFDLWGRGTLVTVSS VL: not shown	50.9 nM	24.6 pM	1.42 nM	–
Clone E Fab (Fab, V domains shown, Fab format) VH: QVQLVQSGAEVKKPGASVKVSCKASGYTFTSYGINWVRQAPGQGLEWMGWITAYSGDTNYAQKLQGRVTMTTDTSTSTAYMELRSLRSDDTAVYYCARGPGQYADVDVWGQGTMVTVSS VL: DIQMTQSPSSVSASVGDRVTITCRASQGISSWLAWYQQKPGKAPKLLIYAASSLQSGVPSRFSGSGSGTDFTLTISSLQPEDFATYYCQQANSFPITFGGGTKVEIK	3.08 nM	46.7 pM	0.413 nM	–
Clone O Fab (Fab, V domains shown, Fab format) VH: QVQLVQSGAEVKKPGATVKVSCKASGYTFDSLGMSWVRQAPGQGLEWMGYISTYSGDTVYAQKLQGRVTMTTDTSTSTAYMELRSLRSDDTAVYYCARESGQQVSALDPWGQGTLVTVSS VL: DIQMTQSPSSVSASVGDRVTITCRASQGISRWLAWYQQKPGKAPKLLIYAASSLQSGVPSRFSGSGSGTDFTLTISSLQPEDFATYYCQQGASFPLTFGGGTKVEIK	11.6 nM	–	0.277 nM	–
Clone T Fab (Fab, V domains shown, Fab format) VH: QVQLVQSGAEVKKPGASVKVSCKASGYTFTSYGINWVRQAPGQGLEWMGWITAYSGDTNYAQKLQGRVTMTTDTSTSTAYMELRSLRSDDTAVYYCARGPGQYADVDVWGQGTMVTVSS VL: DIQMTQSPSSVSASVGDRVTITCRASQGISSWLAWYQQKPGKAPKLLIYAASSLQSGVPSRFSGSGSGTDFTLTISSLQPEDFATYYCQQASQFPITFGGGTKVEIK	1.92 nM	–	0.369 nM	–
Clone P Fab (Fab, V domains shown, Fab format) VH: QVQLVQSGAEVKKPGATVKVSCKASGYTFDSYGIHWVRQAPGQGLEWMGWITAYSGDTVYAQKLQGRVTMTTDTSTSTAYMELRSLRSDDTAVYYCARESGQTSSALGPWGQGTLVTVSS VL: DIQMTQSPSSVSASVGDRVTITCRASQGISRWLAWYQQKPGKAPKLLIYAASSLQSGVPSRFSGSGSGTDFTLTISSLQPEDFATYYCQQGASFPLTFGGGTKVEIK	–	701 pM and 1000 pM	1.72 nM	–
Clone S Fab (Fab, V domains shown, Fab format) VH: QVQLVQSGAEVKKPGASVKVSCKASGYTFTSYGINWVRQAPGQGLEWMGWITAYSGDTNYAQKLQGRVTMTTDTSTSTAYMELRSLRSDDTAVYYCARGPGQYADVDVWGQGTMVTVSS VL: DIQLTQSPSSVSASVGDRVTITCRASQGISPWLAWYQQKPGKAPKLLIYAASSLQSGVPSRFSGSGSGTDFTLTISSLQPEDFATYYCQQANSFPITFGGGTKVEIK	1.36 nM	–	0.252 nM	–
Clone J Fab (Fab, V domains shown, Fab format) VH: QVQLVQSGAEVKKPGASVKVSCKASGYTFTSYGINWVRQAPGQGLEWMGWIDAYSGSTNYAQKLQGRVTMTTDTSTSTAYMELRSLRSDDTAVYYCARGPGQYADVDVWGQGTMVTVSS VL: DIQMTQSPSSVSASVGDRVTITCRASQGISSWLAWYQQKPGKAPKLLIYAASSLQSGVPSRFSGSGSGTDFTLTISSLQPEDFATYYCQQANSFPITFGGGTKVEIK	–	75.1 pM	0.769 nM	–
Clone I Fab (Fab, V domains shown, Fab format) VH: QVQLVQSGAEVKKPGASVKVSCKASGYTFTDEGINWVRQAPGQGLEWMGWITAYSGDTVYAQKLQGRVTMTTDTSTSTAYMELRSLRSDDTAVYYCARGPGQYADVDVWGQGTMVTVSS VL: DIQMTQSPSSVSASVGDRVTITCRASQGISSWLAWYQQKPGKAPKLLIYAASSLQSGVPSRFSGSGSGTDFTLTISSLQPEDFATYYCQQANSFPITFGGGTKVEIK	1.45 nM	111 pM	1.38 nM	–
